Experimental data as given in US6342348.

B1: Neurturin (NTN), species not stated (ligand, UniProt Q99748 96-197, looked up, species assumed)
Neurturin: ARLGARPCGLRELEVRVSELGLGYASDETVLFRYCAGACEAAARVYDLGLRRLRQRRRLRRERVRAQPCCRPTAYEDEVSFLDAHSRYHTVHELSARECACV
B2: GDNF, species not stated (ligand, UniProt P39905 78-211, looked up, species assumed)
Glial cell line-derived neurotrophic factor: SPDKQMAVLPRRERNRQAAAANPENSRGKGRRGQRGKNRGCVLTAIHLNVTDLGLGYETKEELIFRYCSGSCDAAETTYDKILKNLSRNRRLVSDKVGQACCRPIAFDDDLSFLDDNLVYHILRKHSAKRCGCI

Key:
[1] = target: T1, rat NTNRα, endogenous, on embryonic rat spinal motoneurons (rat); assay: cell-based or functional assay
T1 sequence (chain, GPI-linked): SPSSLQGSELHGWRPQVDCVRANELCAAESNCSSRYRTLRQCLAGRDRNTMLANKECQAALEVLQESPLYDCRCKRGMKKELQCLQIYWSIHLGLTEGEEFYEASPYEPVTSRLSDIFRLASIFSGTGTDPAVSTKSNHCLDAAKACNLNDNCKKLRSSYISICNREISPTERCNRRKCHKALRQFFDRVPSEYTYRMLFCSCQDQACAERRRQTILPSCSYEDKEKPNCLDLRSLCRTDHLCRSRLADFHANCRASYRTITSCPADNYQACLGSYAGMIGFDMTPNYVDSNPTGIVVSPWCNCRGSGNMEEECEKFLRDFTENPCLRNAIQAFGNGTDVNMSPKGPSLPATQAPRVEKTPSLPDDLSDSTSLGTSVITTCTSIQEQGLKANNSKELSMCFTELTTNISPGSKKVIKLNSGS

[2] = target: T2, recombinant soluble rat GDNFRα (rat) (UniProt Q62997); assay: binding experiments with biotinylated ligand (format not described)
T2 sequence (looked up): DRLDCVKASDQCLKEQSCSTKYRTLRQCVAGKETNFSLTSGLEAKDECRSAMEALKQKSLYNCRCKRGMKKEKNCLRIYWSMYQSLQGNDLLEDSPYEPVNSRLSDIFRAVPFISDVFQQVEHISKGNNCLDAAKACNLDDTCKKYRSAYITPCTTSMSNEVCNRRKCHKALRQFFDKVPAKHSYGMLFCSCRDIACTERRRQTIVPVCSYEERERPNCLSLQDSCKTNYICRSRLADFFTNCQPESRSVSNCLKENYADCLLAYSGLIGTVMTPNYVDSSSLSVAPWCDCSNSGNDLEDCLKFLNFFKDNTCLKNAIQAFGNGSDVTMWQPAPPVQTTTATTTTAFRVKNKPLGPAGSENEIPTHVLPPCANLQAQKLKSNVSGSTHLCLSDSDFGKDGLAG

[3] = target: T2, recombinant soluble rat GDNFRα (rat); assay: displacement of labelled rGDNF from soluble GDNFRα by unlabeled NTN (10 nm)
[4] = target: rat NTNRα-IgG fusion protein (soluble rNTNRα) (rat); assay: binding experiments with biotinylated ligand (format not described); 'and vice versa'

Binder	decrease in survival response of embryonic rat spinal motoneurons to NTN after PIPLC treatment [1] [%]	Kd [2] [mM]	Kd [3] [nM]	Kd [4] [mM]
B1	50 to 90	> 1	> 1	–
B2	–	–	–	> 1
